Results as given in patent US20260008817A1, “CYCLIC PEPTIDE OR SALT THEREOF, AND USES THEREOF” (FUJIFILM Corporation, priority 2023, published 2026).

How the values were obtained:
[1] = molecular target: T1, FGFR1 Protein, Human, Recombinant (His Tag) (Homo sapiens, UniProt P11362); assay: SPR FGFR versatility, FGFR1 on immobilized cyclic peptide; assay type: binding; conditions: 1 μmol/L FGFR, 25° C.
T1 construct: His tag; purchased Sino Biological 10616-H08H
T1 sequence (P11362 22-285 isoform P11362-14 limits assumed): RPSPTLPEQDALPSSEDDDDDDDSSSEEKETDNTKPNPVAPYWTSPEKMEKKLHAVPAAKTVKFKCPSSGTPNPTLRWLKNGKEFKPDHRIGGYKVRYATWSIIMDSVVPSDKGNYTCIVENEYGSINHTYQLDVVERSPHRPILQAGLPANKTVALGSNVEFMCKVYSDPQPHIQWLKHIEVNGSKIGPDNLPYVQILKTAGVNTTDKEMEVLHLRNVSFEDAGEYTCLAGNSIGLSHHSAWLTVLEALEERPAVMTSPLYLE
Protocol: (§1) The binding of the cyclic peptide to various types of FGFRs was evaluated using a surface plasmon resonance (SPR) method.
(§2) The binding affinity of the chemically synthesized cyclic peptide to FGFR was evaluated by the following procedure.
(§3) A CM5 sensor chip (Cytiva, 29149603) was set in Biacore-T200 (manufactured by Cytiva) which is a surface plasmon resonance device, and an HBS-EP buffer (Cytiva, BR100826) was added as a running buffer at a flow rate of 10 μL/min to equilibrate the flow channel. Next, 70 μL of a mixed aqueous solution of 0.2 mol/L 1-(3-dimethylaminopropyl)-3-ethylcarbodiimide (EDC) and 0.05 mol/L N-hydroxysuccinimide (NHS) was added to activate the sensor chip. Then, a cyclic peptide prepared to 2 mg/mL in HBS-EP buffer was added thereto to perform immobilization at about 200 RU. […]
(§4) After various FGFRs (FGFR1 Protein, Human, Recombinant (His Tag) (Sino Biological, 10616-H08H), FGFR3 Protein, Human, Recombinant (ECD, His Tag) (Sino Biological, 16044-H08H), FGFR4 Protein, Human, Recombinant (His Tag) (Sino Biological, 10538-H08H)) diluted with HBS-EP to 1 μmol/L at 25° C. was added to each flow channel of the cyclic peptide-immobilized sensor chip prepared above, for 10 minutes, HBS-EP was allowed to flow as a running buffer for 30 minutes, and the binding of various FGFRs to the cyclic peptide was measured. […]

[2] = Reductive stability of cyclic peptide (DTT treatment, LC); assay type: physicochemical; conditions: residual rate after DTT treatment, room temperature, 1 hour
Protocol: The molecular stability of the cyclic peptide was evaluated by analyzing an aqueous solution of the cyclic peptide treated with a reducing agent by liquid chromatography (LC).
The reducing agent treatment was performed under the following conditions based on the concentration of glutathione contained in the cells. 25 μL of a 0.2 mg/mL cyclic peptide aqueous solution was prepared, 58.8 μL of a 12.6 mmol/L DTT aqueous solution was added to the aqueous solution, and the mixture was incubated at room temperature for 1 hour to obtain an aqueous solution of the cyclic peptide treated with a reducing agent. The DTT aqueous solution was used by diluting a 1 mol/L (+−)-dithiothreitol (DTT) solution (FUJIFILM Wako Pure Chemical Corporation, 044-33871) with water. The total area of all the peaks in LC/MS of the cyclic peptide before the reducing agent treatment was set to 100%, and the proportion of the total area of all the peaks in LC/MS of the aqueous solution of the cyclic peptide treated with the reducing agent was determined to calculate the residual rate of the cyclic peptide, and the molecular stability was evaluated according to the following evaluation criteria. The evaluation result preferably satisfies the evaluation criteria A, B, or C.
• A: The residual rate of cyclic peptide is 90% or more. • B: The residual rate of the cyclic peptide is 70% or more and less than 90% • C: The residual rate of the cyclic peptide is 50% or more and less than 70% • D: The residual rate of the cyclic peptide is less than 50%
The LC used for the evaluation of molecular stability was set to the following conditions. • LC device: Prominence series (pump, column oven, autosampler, detector) (manufactured by Shimadzu Corporation) • Detector: photodiode array detector (SPD-M20A), measurement wavelength of 280 nm • Column: TSKgel ODS-100V, inner diameter of 4.6 mm×length of 150 mm, particle diameter of 5 μm (manufactured by Tosoh Corporation) • Eluent A: solution containing 0.1% trifluoroacetic acid as solute, and solvent is 100% water • Eluent B: solution containing 0.1% trifluoroacetic acid as solute, and solvent is 100% acetonitrile • Flow rate: 1.0 mL/min • Injection amount: 25 μL • Gradient: 20% to 50%: Eluent B (0 to 15 minutes), 100%: Eluent B (15 minutes) • Column temperature: 40° C.

[3] = molecular target: T2, FGFR4 Protein, Human, Recombinant (His Tag) (Homo sapiens, UniProt P22455); assay: SPR FGFR versatility, FGFR4 on immobilized cyclic peptide; assay type: binding; conditions: 1 μmol/L FGFR, 25° C.
T2 construct: His tag; purchased Sino Biological 10538-H08H
T2 sequence (P22455 22-369 limits assumed): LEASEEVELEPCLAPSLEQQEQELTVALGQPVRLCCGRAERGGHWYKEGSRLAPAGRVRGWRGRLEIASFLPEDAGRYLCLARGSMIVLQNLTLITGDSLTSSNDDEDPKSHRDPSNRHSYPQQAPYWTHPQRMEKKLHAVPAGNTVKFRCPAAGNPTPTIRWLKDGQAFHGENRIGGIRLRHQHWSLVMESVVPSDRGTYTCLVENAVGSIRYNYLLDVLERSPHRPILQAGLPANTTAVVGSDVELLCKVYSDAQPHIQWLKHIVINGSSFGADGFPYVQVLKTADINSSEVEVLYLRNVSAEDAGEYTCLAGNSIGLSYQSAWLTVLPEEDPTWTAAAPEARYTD
Protocol: as §1, §2, §3, §4

335 (ACVWTFDRHAQEISQALHKVKKK; not fully specified; Description of Artificial Sequence: Cyclic peptide) [compound 335]
Evaluation result of binding affinity to FGFR1 [1]: A (The binding amount is 0.05 molecules of FGFR/one molecule of the cyclic peptide or more.)
Evaluation result of reductive stability [2]: B (The residual rate of the cyclic peptide is 70% or more and less than 90%)
Evaluation result of binding affinity to FGFR4 [3]: A (The binding amount is 0.05 molecules of FGFR/one molecule of the cyclic peptide or more.)
